Measurements taken from PMC4387560 (Cell Research, 2015).

Target: T1, Scp1-WD40 (residues 567-1085) (S. pombe, UniProt O43043 567-1085)
T1 sequence (looked up): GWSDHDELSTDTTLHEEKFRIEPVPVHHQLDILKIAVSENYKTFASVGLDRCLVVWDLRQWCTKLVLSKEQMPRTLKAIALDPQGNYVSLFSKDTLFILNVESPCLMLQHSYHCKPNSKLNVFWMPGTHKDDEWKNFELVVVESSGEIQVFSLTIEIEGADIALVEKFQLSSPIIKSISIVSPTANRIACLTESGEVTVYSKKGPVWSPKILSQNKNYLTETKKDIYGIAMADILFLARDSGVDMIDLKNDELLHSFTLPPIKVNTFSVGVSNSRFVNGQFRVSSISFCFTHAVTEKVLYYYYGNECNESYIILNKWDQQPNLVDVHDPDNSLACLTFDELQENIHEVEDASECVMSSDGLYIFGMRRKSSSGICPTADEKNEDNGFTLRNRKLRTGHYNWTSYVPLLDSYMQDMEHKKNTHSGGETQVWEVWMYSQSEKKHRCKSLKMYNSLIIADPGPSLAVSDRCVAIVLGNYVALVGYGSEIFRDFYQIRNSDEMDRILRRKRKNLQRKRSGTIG
Experiment: pull-down

B1: MBP-fused regulatory domain of Sre1 (residues 628-900) (domain or fragment, S. pombe, UniProt Q9UUD1 628-900, looked up)
chain: QHSKSSVHAELRELPECTANLIENSHADDVFSPNMVERLWVLAKCTRDSAQMSDSIISSLSDVLVLSPLEVLASWYAADLLDALLMESLSRKVEISEIEEIISLCPKNSSIIRHALLAKLVLFPENTADSLNEVLAAYKNTLDLCSQDKRKQSSVLKINLSKLFTLHSCLSLALQRLGYGDVSKRMYQEIFVPDSDADITPLSFIISWTALNTFAPICTSPKENDVVEKMAMYVRTAIGTLKIQDLKLSRKLINSCIDIGSRLQEDLGYVSSA
- binding result: binds
